One test has as its target Neutrophil elastase (NE) (UniProt P08246). The experiment in a line: cell-based or functional assay.
For a further test, the target named is T1, neutrophil elastase (Homo sapiens, UniProt P08246).
T1 construct: purchased Enzo Life Sciences
T1 sequence (P08246 30-267): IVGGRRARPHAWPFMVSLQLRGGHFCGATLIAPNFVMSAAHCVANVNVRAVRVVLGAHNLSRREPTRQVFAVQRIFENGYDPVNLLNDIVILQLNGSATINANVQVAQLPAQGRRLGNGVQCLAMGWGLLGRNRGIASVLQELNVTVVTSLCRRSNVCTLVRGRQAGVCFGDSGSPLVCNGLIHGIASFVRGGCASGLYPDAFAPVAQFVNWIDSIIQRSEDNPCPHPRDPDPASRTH
The experiment in a line: Neutrophil Elastase Colorimetric Drug Discovery Assay (Enzo Life Sciences), in vitro inhibition of neutrophil elastase. It counts as biochemical. The protocol:
In vitro studies were performed to test the ability of ulinastatin to inhibit neutrophil elastase (NE). The recombinant ulinastatin polypeptide (DM300) in this experiment is the UTIΔCS variant (SEQ ID NO: 2), which has an N-linked glycan at residue N45 and a non-natural O-linked glycan at residue T17 after recombinant preparation according to methods described in U.S. Provisional Application Nos. 63/108,733 and 63/021,938 (herein incorporated by reference).
Recombinant ulinastatin (DM300) was tested for inhibition of neutrophil elastase at 8 concentrations of DM300, with triplicate measurements per compound concentration. Neutrophil elastase activity was measured using the Neutrophil Elastase Colorimetric Drug Discovery Assay (Enzo Life Sciences) as per the manufacturer's protocol. 65 μl of assay buffer was placed into the required number of wells of a 96 well, clear, half area plate and equilibrated to 37° C. Inhibitor was added to a final reaction concentration at 100, 31.6, 10, 3.16, 1, 0.316, 0.1, 0.0316, or 0 μg/mL DM300 by addition of 20 μl of 5× concentration of DM300 diluted in assay buffer, followed by 10 μl of diluted neutrophil elastase. 100 μM elastatinal was also included as a control. After 15 minutes at 37° C., 5 μl of diluted substrate was added and the plate was read in SpectraMax m5 Microplate Reader equilibrated to 37° C. Linear portions of the data were selected, and the resulting data was analyzed using GraphPad Prism V.8.2.1.

The values below come from US20220242932A1, “ULINASTATIN POLYPEPTIDES FOR TREATING DISEASES” (DiaMedica USA Inc., priority 2021, published 2022).

For the molecule “Recombinant ulinastatin polypeptide (DM300), UTIΔCS variant (from UniProt P02760 206-352)”, in the test with Neutrophil elastase (NE), the IC50 (inhibition of neutrophil elastase activity, colorimetric substrate assay) stood at 3.15 µg/mL; the IC50 (inhibition of neutrophil elastase activity, colorimetric substrate assay), molar conversion stood at 43.8 nM; the LogIC50 (best-fit value) was 0.499 log10(µg/ml).

B1: DM300: recombinant ulinastatin polypeptide, UTIΔCS variant (SEQ ID NO: 2, S10A), N-linked glycan at N45 and non-natural O-linked glycan at T17 (protein, listed as Homo sapiens)
chain: AVLPQEEEGAGGGQLVTEVTKKEDSCQLGYSAGPCMGMTSRYFYNGTSMACETFQYGGCMGNGNNFVTEKECLQTCRTVAACNLPIVRGPCRAFIQLWAFDAVKGKCVLFPYGGCQGNGNKFYSEKECREYCGVPGDGDEELLRFSN
modifications: N-glycan N45, O-glycan T17
Consider B1, for which, in the test with neutrophil elastase (FIG. 1), the “inhibitory activity in an in vitro assay of neutrophil elastase activity” value is on record as “significant inhibitory activity”. Also, in the test with neutrophil elastase (best-fit value, log(inhibitor) vs. response, variable slope (four parameters)), the HillSlope is recorded as −1.004. In addition, the LogIC50 with neutrophil elastase (best-fit value, log(inhibitor) vs. response, variable slope (four parameters), concentration in μg/mL) is reported as 0.4987. In the test with neutrophil elastase (converted from 3.153 μg/ml, assuming 1 Da=1 g/mol), this molecule came in with an IC50 of around 43.8 nM.

The term IC50 denotes the concentration needed to halve the response being measured. The low end stands for greater potency in that assay, the high end for weaker potency in that assay.
